Experimental data published in the supplement of paper PMC9170038.

System: MS2 coat protein
Assay: apparent KD of MS2 coat protein; designed switch direction (-1 OFF switch, 1 ON switch): -1; higher = weaker reporter binding
Outline: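 Normalised cluster fluorescence was curve-fitted, and each design's median over clusters is its apparent KD. Before this, SNAP-549-labelled MS2 coat protein was titrated from 0.7 or 1.5 nM, doubling to 3 µM, over RNA switches transcribed on Illumina chips by stalled E. coli RNA polymerase. Titrations had no input, 200 uM small-molecule ligand, or an oligonucleotide input, and steps lasted 0.8–1.5 h (lowest) to 10–20 min (highest).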

[1] = Eterna round: R95, input ligand: microRNA oligo, concentration not stated
[2] = input ligand: microRNA oligo, concentration not stated
[3] = Eterna round: R95, input ligand: FMN 200 uM
[4] = Eterna round: R95, input ligand: none

Row | Sequence | apparent KD of MS2 coat protein (input ligand: FMN 200 uM) | apparent KD of MS2 coat protein (input ligand: none) | apparent KD of MS2 coat protein [1] | apparent KD of MS2 coat protein [2] | apparent KD of MS2 coat protein [3] | apparent KD of MS2 coat protein [4]
1 | UUGAAUUAACAGGAUAUGGGAGUCGAUAGACACCCAGAAGGGUUAACAUGAGGAUCACCCAUGUGUCCUAUCAA [Mod of Eli 23 - Jieux - Exclusion 6] (Eterna round: R97, puzzle: Exclusion 6) | 94.8 nM | 36.5 nM | – | – | – | –
2 | ACAAGCUUGUAAUGAUUGAACAUGAGGAUCACCCAUGUAAAUGGAAGAACCAACUUGAUAUGAUUUACUCGUCUUAU [JR_STOV1_Sub011] (Eterna round: R97, puzzle: Sensor, turn-off variant 1) | 676 nM | 546 nM | – | – | – | –
3 | AGUAACAGAGGAUAUACUGUUUUAUGUGUUUAUUGUUUUAAACAUGAGGAUCACCCAUGUAGAAGGCUGAAUAA [JMF 85] (puzzle: Exclusion 2) | – | – | 25.5 nM | – | – | –
4 | CCAUAUAACACAGGAUAUCAUCGCAACUGACGUUGAGAAGGGUGACAUGAGGAUCACCCAUGUGAUUUCUCAAUAUUAUACAUC [Prohibition 81 - Jieux - Exclusion NG 1] (Eterna round: R96, puzzle: Exclusion NG 1) | 1040 nM | 1110 nM | – | 661 nM | – | –
5 | AUGUGCACGCUGCGAUCCUACAUGAGGAUCACCCAUGUGGUCUGGUGGCGUGGGUCACCGGACUUGGCUCGUCUUGA [salish99_S_TOV1_R5_067] (Eterna round: R97, puzzle: Sensor, turn-off variant 1) | 117 nM | 128 nM | – | – | – | –
6 | CCUGUACAUGAGGAUCACCCAUGUUAGGAUAUCUCGCCGUCGGCUUGCCGACGGUAUUAGAGAAGGGACAAGGG [JL Tixe mod 4] (puzzle: Exclusion 1) | – | – | 31 nM | – | – | –
7 | GGCAUGUAAGGAUAUGCCACCGAGUGCUUUGCGCUCGGUAAGCAGAAGGUACAUGAGGAUCACCCAUGUGAUAA [jl-ex4-4.55 ViennaUCT mod] (Eterna round: R97, puzzle: Exclusion 4) | 132 nM | 660 nM | – | – | – | –
8 | ACAUGGAAGCAGGAUAUGCUUGUAUAAUUGAAAGCAGAAGGGCUAACAUGAGGAUCACCCAUGUAAGAGGUCUA [JR_E6_Sub060] (puzzle: Exclusion 6) | – | – | 21 nM | – | 91 nM | 24.7 nM
9 | UACAUGAGGAUCACCCAUGUUUUGUCGUGUAUGGUAUUUAUCUAGGAUAUCAAGUUAUGUAUUUAUGAGAAGGAGAAUAUUAAU [JMF's solution 31] (Eterna round: R96, puzzle: Exclusion NG 3) | 40.4 nM | 43.2 nM | – | 35.3 nM | – | –
10 | GGUCGAGAACAGCUCCGCGCCGCCCUCGACCGCUCAUUUACAUGAGGAUCACCCAUGUUUUUUGCUUGUCUUGUUUC [Ceerar] (puzzle: Sensor v3, turn-off variant 2) | – | – | 98.4 nM | – | 20.6 nM | 23.4 nM
11 | AUCUCUCGUGUUAGGAUAUCCAGUUAGUUCGUGCGGGAGAAGGAACAUGAGGAUCACCCAUGUAAACAAAUCGC [BmEX4 B.21] (Eterna round: R97, puzzle: Brourd's mod of Exclusion 4) | 52.1 nM | 18.5 nM | – | – | – | –
12 | AACAAUACUUACAUAAUAAGGCUUUUCAGGUCGGGUACCACAUGAGGAUCACCCAUGUAGCAGCCUAGGGAAUGAUA [JR_Sensorv2_tov2_Sub1233] (Eterna round: R96, puzzle: Sensor v2, turn-off variant 2) | 49.2 nM | 46.1 nM | – | 36.4 nM | – | –
13 | GUGUAGAUAGGAUAUGCUGGAAUCUAGCGAAGCUAGGUUCUACAUGAGGAUCACCCAUGUAGAAGGGUCUACAC [Dot plot directed A v12] (puzzle: Exclusion 2) | – | – | 28.5 nM | – | – | –
14 | UUGUAACGAUUAGGAUAUUAUUAAUAGAACUUUAUGAUAUACAUGAGGAUCACCCAUGUUACUUUUAAGAAGGAAUCGUAUUAU [JR_ExcNG2_Sub091] (Eterna round: R96, puzzle: Exclusion NG 2) | – | – | – | 17 nM | – | –
15 | AAAUACAAGCAAAGAUCCUACAUGAGGAUCACCCAUGUGCUCGUCUUAUAAAGUACUAUCACGAAAGUGAUAGUACA [Sensor 3, v1 - 15] (puzzle: Sensor v3, turn-off variant 1) | – | – | 48.2 nM | – | 286 nM | 1110 nM
16 | UUUUACAUAGGAUAUAGUUUGUUGUACAUGAGGAUCACCCAUGUUUUUGUUUGUGCUUUUCUAGAAGGAUGUUUCU [JR_E5_Sub016] (puzzle: Exclusion 5) | – | – | 28.9 nM | – | – | –
17 | CUAGCGAUUGUAGGAUAUCGAUGUGUUUCACAUCGAGAAGGACAUGAGGAUCACCCAUGUGAAGGAUCGUGAGAUCCACGCUAG [JL ENG1 3.78] (Eterna round: R96, puzzle: Exclusion NG 1) | 76.6 nM | 19.7 nM | – | 17.5 nM | – | –

Row | Sequence | apparent KD of MS2 coat protein (input ligand: FMN 200 uM) | apparent KD of MS2 coat protein (input ligand: none) | apparent KD of MS2 coat protein [1] | apparent KD of MS2 coat protein [2] | apparent KD of MS2 coat protein [3] | apparent KD of MS2 coat protein [4]
18 | UGGUCACAUGAGGAUCACCCAUGUCAGGAUAUCGUCACUGGAGCCUCGGCUCCAGUGACGAGAAGGGACAUAAU [E1/6-A2] (Eterna round: R97, puzzle: Exclusion 1) | 267 nM | 254 nM | – | – | – | –
19 | AAUUUUUAUGUAAGGAUAUGGGUUUGGAAACGGGCUUAGAAGGUACAUGAGGAUCACCCAUGUAUAAUGUGCGU [-19.9, -19.7 kcal, 30% A] (Eterna round: R97, puzzle: Brourd's mod of Exclusion 4) | 19 nM | 18.3 nM | – | – | – | –
20 | UGGUAACAUGAGGAUCACCCAUGUCAGGAUAUCAGUAAGAAGAGAGGAGAGUAGAAGAUGAGAAGGGACUAUAU [Excluse me! 9 - Jieux - Exclusion 1] (puzzle: Exclusion 1) | – | – | 29.9 nM | – | 26.4 nM | 37.4 nM
21 | UUUUUGUAUGAAGGAUAUACUUAACAUGAGGAUCACCCAUGUGGUGUUGUGAGUGAGUGAGUUUAGUAGAAGGUCAAGUAUUUU [JMF's solution 46] (Eterna round: R96, puzzle: Exclusion NG 2) | 580 nM | 390 nM | – | 606 nM | – | –
22 | ACAUGAGGAUCACCCAUGUGAAAAGAAUGGCUGACACAGAGAUAGGAUAUGCGUGCAUAUCUAACGCAGAAGGGUCAUGACUGG [Deportation 81 - Jieux - Exclusion NG 3] (Eterna round: R96, puzzle: Exclusion NG 3) | 25.9 nM | 28.3 nM | – | 22.4 nM | – | –
23 | AUAAUGUGAGGAUAUCGAGACUACUGCCUCGGCAGUAGUCUCGAGAAGGCACAUGAGGAUCACCCAUGUGAUCA [E4/2-A2] (Eterna round: R97, puzzle: Exclusion 4) | 79 nM | 1190 nM | – | – | – | –
24 | UGACCUAAAGGAUAUACAUGAGGAUCACCCAUGUCUUCAGCUGCCGUAAGGGAUCUUAGUAGAAGGUUAGGUCG [Eternabot (L1) Solution 43] (Eterna round: R97, puzzle: Exclusion 3) | 1360 nM | 84 nM | – | – | – | –
25 | CUGCUCCGUGUAGGAUAUGCAUGCAACCAAUAUGCAGAAGGACAUGAGGAUCACCCAUGUAUGUUAUUAUCACGUGAAGCGUCC [Design 22] (Eterna round: R96, puzzle: Exclusion NG 1) | 27.1 nM | 29.8 nM | – | 19.5 nM | – | –
26 | GGUACUAACACGAAAGUGUUAGUACUAUAAGUUUGUGUUACAUGAGGAUCACCCAUGUCCUCAUAAGCUCGUCUUGU [JL-sv3-2.20 mat747 mod] (puzzle: Sensor v3, turn-off variant 2) | – | – | 59.6 nM | – | 623 nM | 685 nM
27 | GCUAGGAAUGUCAGGAUAUGCUGAUCCUUGGAUCAGCAGAAGGGACAUGAGGAUCACCCAUGUGCUAACCUAGC [Mat - Exclusion 4 - JL Mod - D6] (Eterna round: R97, puzzle: Brourd's mod of Exclusion 4) | 177 nM | 30.8 nM | – | – | – | –
28 | CUGUUCCGUGUAGGAUAUGCAUAUUCCCAUUAUGCAGAAGGACAUGAGGAUCACCCAUGUAUGUUAUUAUCAUGUGUUACAUGC [Design 8] (Eterna round: R96, puzzle: Exclusion NG 1) | 635 nM | 36.4 nM | – | 31.3 nM | – | –
29 | GUUAUUUCAGGAUAUACAUGAGGAUCACCCAUGUAAGCAAGGUGCCUGCAUCCCGACUGUAGAAGGGAAAUGAG [Eternabot (L2) Solution 61] (Eterna round: R97, puzzle: Exclusion 3) | 29.9 nM | 28.5 nM | – | – | – | –
30 | CCGGCUUAGGAGGAUAUAGGAGUCGAUAGACACCUAGAAGGCCUAACAUGAGGAUCACCCAUGUGUCCUACCGG [Fiskers Ex 6 - 99] (puzzle: Exclusion 6) | – | – | 16.3 nM | – | – | –
31 | CAGUACUGAGGAUAUACAUGAGGAUCACCCAUGUGAACCAGCUAGGAAACUAGCAAAAGUAGAAGGCAGUACUG [828 mod 2 m7] (Eterna round: R97, puzzle: Exclusion 3) | 2260 nM | 92.5 nM | – | – | – | –
32 | UUGUUAUAUGUAGGAUAUGCGUAUUAUUAUUAUGCAGAAGGACAUGAGGAUCACCCAUGUAUAUUAUUAUUAUAUAUUAUAUAU [Title] (Eterna round: R96, puzzle: Exclusion NG 1) | – | – | – | 21.9 nM | – | –
33 | CCAUCGUGUGUGAGGAUAUGCUGGUCCUUGGAUCAGCAGAAGGCACAUGAGGAUCACCCAUGUGAAGACGGUGG [JL bmx4 3.22] (puzzle: Brourd's mod of Exclusion 4) | – | – | 17.4 nM | – | 48.7 nM | 24.2 nM
34 | GCUGGUCGAGGAUAUGCAUACACUGGAUACAGUGGAAGGUCACAUGAGGAUCACCCAUGUAGAAGGCGACCAGC [EX2 #35] (Eterna round: R97, puzzle: Exclusion 2) | 122 nM | 35.1 nM | – | – | – | –
